Data as given in patent US20070111265A1 (VAN ANDEL RESEARCH INSTITUTE, published 2007).
Substitutions are numbered along the chain they refer to. Blank lines part the entries; values can stand above or below the binder they belong to. No end group written: not given here.

Experiments:
[1] = target: T1, human MR LBD (residues 727-984) containing a C808S mutation, 6xHis-GST fusion protein (human, UniProt P08235 727-984); assay: AlphaScreen, biotinylated peptide and 6xHis-GST MR LBD/corticosterone
T1 construct: also called purified MR LBD; MR LBD (C808S); not shown: glutathione S-transferase (GST) tag; thrombin protease site between GST and the MR LBD
T1 sequence: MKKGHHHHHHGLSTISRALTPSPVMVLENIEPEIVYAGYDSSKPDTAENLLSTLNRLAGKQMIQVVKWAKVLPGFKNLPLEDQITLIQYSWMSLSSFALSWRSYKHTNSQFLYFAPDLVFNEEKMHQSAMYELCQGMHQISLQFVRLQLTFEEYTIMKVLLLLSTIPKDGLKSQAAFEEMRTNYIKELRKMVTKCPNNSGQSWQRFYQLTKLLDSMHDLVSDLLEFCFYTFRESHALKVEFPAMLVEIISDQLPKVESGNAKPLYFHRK

[2] = target: T1, human MR LBD (residues 727-984) …; assay: AlphaScreen quantitative competition with unlabeled peptide, MR LBD/corticosterone
Procedure: (§1) The binding of various peptide motifs to MR was determined by AlphaScreen assays using a hexahistidine detection kit from Perkin-Elmer. MR proteins were prepared as 6×His-GST fusion proteins for the assays.

[3] = target: T2, MR LBD (C808S) with K785E first charge clamp mutation, 6xHis-GST fusion protein (human, UniProt P08235 727-984); assay: AlphaScreen, 100 nM corticosterone
T2 construct: not shown: glutathione S-transferase (GST) tag; thrombin protease site between GST and the MR LBD
T2 sequence: T1 sequence with K70E

[4] = target: T3, MR LBD (C808S) with E962R first charge clamp (AF-2 helix) mutation, 6xHis-GST fusion protein (human, UniProt P08235 727-984); assay: AlphaScreen, 100 nM corticosterone
T3 construct: not shown: glutathione S-transferase (GST) tag; thrombin protease site between GST and the MR LBD
T3 sequence: T1 sequence with E247R

[5] = target: T1, human MR LBD (residues 727-984) …; assay: AlphaScreen competition (IC50 per FIG. 3F legend), MR LBD/corticosterone
Procedure: as §1

- binding result [1]: no binding
B1: biotinylated SMRT-2 peptide (peptide)
peptide: QAVQEHASASTNMGLEAIIRKALMGKY
modifications: also: biotinylated, site not given here
notes: also called SMRT corepressor motif

- IC50 [2]: 0.9 µM
B2: unlabeled SRC1-4 peptide AQQKSLLQQLLTE (peptide)
peptide: AQQKSLLQQLLTE
notes: treated as one molecule; also called SRC1-4 LXXLL motif

- binding result [3]: no binding
- binding result [4]: no binding
B3: biotinylated SRC1-2 peptide (peptide)
peptide: SPSSHSSLTERHKILHRLLQEGSP
modifications: also: biotinylated, site not given here

- IC50 [2]: 21.4 µM
B4: unlabeled SRC1-1 peptide (peptide)
peptide: SQTSHKLVQLLTTTA
notes: also called 1st motif of SRC1

- binding result [3]: no binding
B5: biotinylated SRC2-3 (TIF2) peptide (peptide)
peptide: QEPVSPKKKENALLRYLLDKDDTKD
modifications: also: biotinylated, site not given here
notes: also called third LXXLL motif of SRC2; TIF2/GRIP1 third motif

- binding result [3]: no binding
B6: biotinylated SRC1-4 peptide (peptide)
peptide: QKPTSGPQTPQAQQKSLLQQLLTE
modifications: also: biotinylated, site not given here

- IC50 [5]: 0.04 µM
B7: SRC2-(2+3), human SRC2 fragment (residues 563-763) containing the 2nd and 3rd LXXLL motifs, 6xHis-GST fusion protein (other, UniProt Q15596 563-763, looked up)
chain: QNSPVNMNPPPLSKMGSLDSKDCFGLYGEPSEGTTGQAESSCHPGEQKETNDPNLPPAVSSERADGQSRLHDSKGQTKLLQLLTTKSDQMEPSPLASSLSDTNKDSTGSLPGSGSTHGTSLKEKHKILHRLLQDSSSPVDLAKLTAEATGKDLSQESSSTAPGSEVTIKQEPVSPKKKENALLRYLLDKDDTKDIGLPEIT
notes: No removal of the 6xHis-GST tag is described; also called purified SRC2 fragment; not shown: 6xHis tag; glutathione S-transferase (GST) tag

- fold decrease of binding affinity against SRC2-(2+3) [5]: > 10 fold
B8: SRC2-(M2+3), SRC2 fragment (2+3) with the 2nd LXXLL motif mutated to LXXAA (other, UniProt Q15596 563-763, looked up)
chain: B7 chain with L131A, L132A
notes: not shown: 6xHis tag; glutathione S-transferase (GST) tag

- binding result [1]: no binding
B9: biotinylated NCOR-2 peptide (peptide)
peptide: GHSFADPASNLGLEDIIRKALMGSF
modifications: also: biotinylated, site not given here
notes: also called N-COR corepressor motif

- IC50 [2]: 16.8 µM
B10: unlabeled SRC3-1 peptide (peptide)
peptide: SKGHKKLLQLLTCSS
notes: also called 1st motif of SRC3
